In US20090191579A1 (PAIN THERAPEUTICS, published 2009):

Molecular target: MAP1B, endogenous, rat striatum (rat, UniProt P15205 2-2461, limits assumed)
Test: co-immunoprecipitation (anti-Gα, then anti-MOR) from rat striatum, Western blot

MAP1B, endogenous, rat striatum, sequence (P15205 2-2461 limits assumed): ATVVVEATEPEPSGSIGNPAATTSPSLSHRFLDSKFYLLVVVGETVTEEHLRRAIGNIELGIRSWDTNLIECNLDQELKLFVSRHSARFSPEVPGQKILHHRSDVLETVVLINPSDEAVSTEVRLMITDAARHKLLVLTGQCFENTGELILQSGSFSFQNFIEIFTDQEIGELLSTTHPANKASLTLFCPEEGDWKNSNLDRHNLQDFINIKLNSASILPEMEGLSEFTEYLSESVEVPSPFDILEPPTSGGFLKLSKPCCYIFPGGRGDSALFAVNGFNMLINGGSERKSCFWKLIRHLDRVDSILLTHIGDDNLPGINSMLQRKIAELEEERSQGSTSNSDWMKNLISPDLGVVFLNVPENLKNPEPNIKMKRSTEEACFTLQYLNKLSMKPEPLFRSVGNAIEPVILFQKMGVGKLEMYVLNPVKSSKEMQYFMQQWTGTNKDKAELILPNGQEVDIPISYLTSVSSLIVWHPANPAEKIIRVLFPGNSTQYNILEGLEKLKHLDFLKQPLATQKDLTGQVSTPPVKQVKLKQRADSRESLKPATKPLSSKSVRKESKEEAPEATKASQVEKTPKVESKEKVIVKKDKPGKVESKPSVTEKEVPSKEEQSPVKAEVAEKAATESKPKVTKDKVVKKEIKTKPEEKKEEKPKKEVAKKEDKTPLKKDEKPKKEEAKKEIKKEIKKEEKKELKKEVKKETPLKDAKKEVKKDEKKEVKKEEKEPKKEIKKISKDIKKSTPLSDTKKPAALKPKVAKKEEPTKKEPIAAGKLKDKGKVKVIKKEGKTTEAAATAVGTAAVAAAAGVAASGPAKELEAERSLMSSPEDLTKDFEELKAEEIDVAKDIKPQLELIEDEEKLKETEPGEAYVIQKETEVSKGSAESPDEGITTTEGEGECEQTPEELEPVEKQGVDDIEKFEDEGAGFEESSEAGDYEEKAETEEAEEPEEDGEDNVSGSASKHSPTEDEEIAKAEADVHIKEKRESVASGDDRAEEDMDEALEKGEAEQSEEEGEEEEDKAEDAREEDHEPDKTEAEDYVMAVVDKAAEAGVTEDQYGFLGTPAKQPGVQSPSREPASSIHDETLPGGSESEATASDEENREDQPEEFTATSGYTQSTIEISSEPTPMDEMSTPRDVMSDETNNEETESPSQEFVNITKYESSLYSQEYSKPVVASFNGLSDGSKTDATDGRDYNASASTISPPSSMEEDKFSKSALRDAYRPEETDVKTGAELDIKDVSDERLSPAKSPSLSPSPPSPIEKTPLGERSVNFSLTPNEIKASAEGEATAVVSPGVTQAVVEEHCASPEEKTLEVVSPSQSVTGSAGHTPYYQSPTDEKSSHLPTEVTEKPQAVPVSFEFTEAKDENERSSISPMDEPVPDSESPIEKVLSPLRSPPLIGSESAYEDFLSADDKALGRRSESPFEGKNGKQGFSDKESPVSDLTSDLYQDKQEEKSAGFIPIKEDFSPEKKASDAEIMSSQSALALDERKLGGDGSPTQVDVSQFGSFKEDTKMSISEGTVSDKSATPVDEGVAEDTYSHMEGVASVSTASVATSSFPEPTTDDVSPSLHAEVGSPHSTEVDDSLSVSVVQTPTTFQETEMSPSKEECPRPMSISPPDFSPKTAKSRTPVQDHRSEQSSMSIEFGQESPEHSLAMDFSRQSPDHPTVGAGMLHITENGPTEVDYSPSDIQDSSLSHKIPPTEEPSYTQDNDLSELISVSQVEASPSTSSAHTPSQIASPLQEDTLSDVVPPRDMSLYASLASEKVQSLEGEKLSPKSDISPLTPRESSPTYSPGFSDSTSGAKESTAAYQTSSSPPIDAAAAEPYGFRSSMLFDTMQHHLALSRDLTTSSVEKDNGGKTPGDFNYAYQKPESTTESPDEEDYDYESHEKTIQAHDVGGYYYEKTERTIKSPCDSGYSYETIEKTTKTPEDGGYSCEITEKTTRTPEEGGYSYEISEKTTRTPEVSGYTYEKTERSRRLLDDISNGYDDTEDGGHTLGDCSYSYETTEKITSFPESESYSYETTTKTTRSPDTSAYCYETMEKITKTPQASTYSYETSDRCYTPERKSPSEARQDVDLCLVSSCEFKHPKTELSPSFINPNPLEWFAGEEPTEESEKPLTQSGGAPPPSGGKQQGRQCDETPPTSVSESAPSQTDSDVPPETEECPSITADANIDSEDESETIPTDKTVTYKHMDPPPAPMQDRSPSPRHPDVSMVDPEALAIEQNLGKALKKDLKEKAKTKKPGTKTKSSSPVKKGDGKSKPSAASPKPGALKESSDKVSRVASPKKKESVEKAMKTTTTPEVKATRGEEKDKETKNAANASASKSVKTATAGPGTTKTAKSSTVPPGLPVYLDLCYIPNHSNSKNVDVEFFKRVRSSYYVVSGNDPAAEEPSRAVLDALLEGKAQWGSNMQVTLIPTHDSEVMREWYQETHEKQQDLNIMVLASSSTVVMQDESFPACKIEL

B1: mu opioid receptor (MOR), endogenous, rat striatum (receptor, UniProt P33535 1-398, looked up)
chain: MDSSTGPGNTSDCSDPLAQASCSPAPGSWLNLSHVDGNQSDPCGLNRTGLGGNDSLCPQTGSPSMVTAITIMALYSIVCVVGLFGNFLVMYVIVRYTKMKTATNIYIFNLALADALATSTLPFQSVNYLMGTWPFGTILCKIVISIDYYNMFTSIFTLCTMSVDRYIAVCHPVKALDFRTPRNAKIVNVCNWILSSAIGLPVMFMATTKYRQGSIDCTLTFSHPTWYWENLLKICVFIFAFIMPVLIITVCYGLMILRLKSVRMLSGSKEKDRNLRRITRMVLVVVAVFIVCWTPIHIYVIIKALITIPETTFQTVSWHFCIALGYTNSCLNPVLYAFLDENFKRCFREFCIPTSSTIEQQNSTRVRQNTREHPSTANTVDRTNHQLENLEAETAPLP
notes: Endogenous receptor immunoprecipitated with anti-MOR or detected with anti-MOR in anti-Gα immunoprecipitates; also called µ opioid receptor
binding result: no binding
